The target of test [1] is T1, ubiquitin (D77) (UniProt P0CG48 1-76, D77). Briefly: NMR titration.
Test [2] deals with T1, ubiquitin (D77). Put plainly: ITC.
For test [3], the target named is T1, ubiquitin (D77). Briefly: ITC. The source holds these as a separate data set. On the technique in general: In ITC the heat of successive injections is recorded.

B1: gp78CUE domain (453–504) (domain or fragment, human, UniProt Q9UKV5 453-504, looked up)
chain: SNSQLNAMAHQIQEMFPQVPYHLVLQDLQLTRSVEITTDNILEGRIQVPFPT
On to B1, for which the Kd (commonly the constant that tells how readily two partners part at equilibrium) in the test with ubiquitin (D77) [1] was 13.6 ± 12 µM. Also, in the test with ubiquitin (D77) [2], the dH is -3.418 ± 0.0239 kcal/mol and the stoichiometry N (commonly a count of units in the complex or per binding partner) came out at 0.91. Further, the Kd in the test with ubiquitin (D77) [3] came out at 12.8 ± 0.7 µM.
